For orientation: EC50 means the concentration that produces a half-maximal response. High values mean lower potency in that assay, low ones higher potency in that assay.

Consider one molecule from patent US20240034786A1 (WUXI BIOLOGICS IRELAND, published 2024).

Experiment [1] addresses T1, W319-hPro1.D123.ECD.hFc (WT) (human, UniProt P22223 108-461).
T1 construct: range 108-461; also called Human P-cadherin ECD domain 1&2&3; domain 1-3; not shown: human Fc by the code hFc
As to the kind of experiment: direct ELISA on coated antigen. On the procedure: (§1) The binding of the antibodies to W319-hPro1.D1.ECD.hFc, W319-hPro1.D12.ECD.hFc (WT), W319-hPro1.D123.ECD.hFc (WT), W319-hPro1.D1234.ECD.hFc (WT) (2.5) and W319-hPro1.ECD.hFc (WT)-P3 were tested by a direct protein binding ELISA. 96-well high protein binding ELISA plates (Nunc MaxiSorp, ThermoFisher, Cat #: 442404) were coated overnight at 4° C. with 1 μg/mL antigens in Carbonate-bicarbonate buffer (20 mM Na2CO3, 180 mM NaHCO3, pH=9.2). All wells were washed three time with 300 μL per well of PBS/0.5‰ Tween-20 (v/v) and all the following wash steps in the assay were performed the same. The wells were then blocked for one hour with 2% BSA (Bovogen, Cat #: BSAS)/1×PBS (Ca+/Mg+) (Gibco, #14040-117) and washed three times. For the primary antibody binding, the testing antibodies including the BMKs and our antibodies serially diluted in 2% BSA/1×PBS (Ca+/Mg+) were added to the relevant wells and incubated at room temperature for two hours. Plates were washed three times prior to the addition of 100 μL of secondary antibody Goat anti-Human-IgG-F(ab′)2-HRP (Jackson, Cat #: 109-035-097) 5000-fold diluted in 2% BSA/1×PBS (Ca+/Mg+). Plates were incubated at room temperature for one hour, followed by six washes as describe above.
(§2) For the binding detection, 100 μL Tetramethylbenzidine (TMB) Substrate solution (Invitrogen, Cat #: 002023) was added to all wells for 10 minutes before stopping the reaction with 100 μL 2M HCl. The extent of the testing Abs binding to W319-hPro1.D1.ECD.hFc, W319-hPro1.D12.ECD.hFc (WT), W319-hPro1.D123.ECD.hFc (WT), W319-hPro1.D1234.ECD.hFc (WT) and W319-hPro1.ECD.hFc (WT)-P3 were determined by measuring the OD450 absorbance using the SpectraMax® M5e microplate reader. Wherever appropriate, binding EC50 values were obtained by the four-parameter non-linear regression analysis using GraphPad Prism 5 software.
(§3) Its binding epitope is different from BMKs.
Background: ELISA stands for enzyme-linked immunosorbent assay.

For experiment [2], the target named is T2, W319-hPro1.D12.ECD.hFc (WT) (human, UniProt P22223 108-348).
T2 construct: range 108-348; also called Human P-cadherin ECD domain 1&2; domain 1-2; not shown: human Fc by the code hFc
As to the kind of experiment: direct ELISA on coated antigen. The protocol:
as §1, §2, §3

For experiment [3], the target named is T3, W319-hPro1.D1234.ECD.hFc (WT) (human, UniProt P22223 108-550).
T3 construct: range 108-550; also called Human P-cadherin ECD domain 1&2&3&4; domain 1-4; not shown: human Fc by the code hFc
Kind of experiment: direct ELISA on coated antigen. The protocol:
as §1, §2, §3

For experiment [4], the target named is T4, W319-hPro1.ECD.hFc (WT)-P3 (human, UniProt P22223 108-654).
T4 construct: range 108-654; also called Human P-cadherin ECD; not shown: human Fc by the code hFc
As to the kind of experiment: direct ELISA on coated antigen. The protocol:
as §1, §2, §3

A further experiment deals with T5, W319-hPro1.D1.ECD.hFc (human, UniProt P22223 108-236).
T5 construct: range 108-236; also called Human P-cadherin ECD domain 1; not shown: human Fc by the code hFc
Kind of experiment: direct ELISA on coated antigen. On the procedure:
as §1, §2, §3

The target in experiment [5] is T6, Human P-cadherin on cells (human, UniProt P22223 108-829).
T6 construct: whole, on cells; Endogenous P-cadherin on tumour cell lines; also called hPro1
As to the kind of experiment: FACS on HCT-116 cells, antibody kept in human serum at 37 C, Day 0. On the procedure: The antibody stability in human serum was tested by FACS. Briefly, human serum was freshly isolated by centrifuging the fresh blood twice at 4000 rpm for 10 minutes. […] As a control, antibodies serum mix was frozen immediately without 37° C. incubation. For the FACS analysis, the samples from different time points were free-thawed simultaneously at 4° C. […] The cells were washed twice with 1% BSA/1×PBS (Ca+/Mg+). Alexa647 conjugated Goat anti-human IgG Fc (Jackson, #109-605-098) 1:500 diluted in 1% BSA/1×PBS (Ca+/Mg+) were added to the cells and incubated at 4° C. for 30 minutes. Cells were washed twice in the same buffer and the mean fluorescence (MFI) of stained cells was measured using a FACS Canto II cytometer (BD Biosciences) and analyzed by FlowJo. Wells containing no antibody or secondary antibody only were used to establish background fluorescence. Four-parameter non-linear regression analysis was used to obtain EC50 values for cell binding using GraphPad Prism6 software.

Experiment [6] concerns the target T6, Human P-cadherin on cells. As to the kind of experiment: FACS on DU-145 cells. The protocol: (§4) Binding of the test antibodies to P-cadherin expressed on cells was determined by flow cytometry analysis. […] 1×10⁵ cells/well (100 μL) were added to each well of a 96-well U-plate (Corning, #3799) and centrifuged at 1500 rpm (Eppendorf, #5810R) for 5 minutes before removing the supernatant. Antibodies serially diluted in 1% BSA/1×PBS (Ca+/Mg+) were added at 100 μL/well to the pelleted cells and incubated at 4° C. for 1 hour. Anon-related hIgG1 antibody was used as an isotype control. Cells were washed two times with 180 μL/well of 1% BSA/1×PBS (Ca+/Mg+) by centrifugation at 1500 rpm for 5 minutes at 4° C. Pelleted cells were resuspended in 100 μL/well Alexa647 conjugated Goat anti-human IgG Fc (Jackson, #109-605-098) 1:500 diluted in 1% BSA/1×PBS (Ca+/Mg+) for 30 minutes at 4° C. in the dark. Cells were then washed two times as described above. After the final wash, cells were resuspended in 100 μL 1% BSA/1×PBS (Ca+/Mg+) and fluorescence values were measured with a FACS Canto II cytometer (BD Biosciences). The amount of cell surface bound anti-P-cadherin antibody was assessed by measuring the mean fluorescence (MFI). The FACS raw data were analyzed by FlowJo software, wells containing no antibody or secondary antibody only were used to establish background fluorescence. Binding EC50 values were obtained by the four-parameter non-linear regression analysis using GraphPad Prism6 software.

Experiment [7] addresses T6, Human P-cadherin on cells. Kind of experiment: FACS on HCT-116 cells. The protocol:
as §4

T6 sequence (P22223 108-829): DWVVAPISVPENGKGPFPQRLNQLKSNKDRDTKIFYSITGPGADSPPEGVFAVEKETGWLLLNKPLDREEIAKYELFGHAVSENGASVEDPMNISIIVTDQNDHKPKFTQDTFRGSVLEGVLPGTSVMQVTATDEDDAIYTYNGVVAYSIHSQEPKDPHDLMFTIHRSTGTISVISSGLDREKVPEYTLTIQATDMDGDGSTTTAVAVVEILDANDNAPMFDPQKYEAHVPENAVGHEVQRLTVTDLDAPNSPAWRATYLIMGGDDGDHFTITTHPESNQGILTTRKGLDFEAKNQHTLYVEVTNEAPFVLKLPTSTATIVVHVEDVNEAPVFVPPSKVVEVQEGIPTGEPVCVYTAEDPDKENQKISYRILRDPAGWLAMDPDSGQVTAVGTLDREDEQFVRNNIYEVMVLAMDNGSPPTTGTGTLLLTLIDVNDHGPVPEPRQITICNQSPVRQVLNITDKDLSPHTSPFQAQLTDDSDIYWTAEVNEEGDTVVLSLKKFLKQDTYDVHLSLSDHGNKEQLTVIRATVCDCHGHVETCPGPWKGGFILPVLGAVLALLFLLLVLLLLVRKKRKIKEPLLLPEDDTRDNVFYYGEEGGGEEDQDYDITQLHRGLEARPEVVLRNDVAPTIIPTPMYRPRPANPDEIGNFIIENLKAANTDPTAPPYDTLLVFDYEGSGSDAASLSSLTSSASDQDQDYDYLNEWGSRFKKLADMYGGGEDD
T3 sequence (P22223 108-550): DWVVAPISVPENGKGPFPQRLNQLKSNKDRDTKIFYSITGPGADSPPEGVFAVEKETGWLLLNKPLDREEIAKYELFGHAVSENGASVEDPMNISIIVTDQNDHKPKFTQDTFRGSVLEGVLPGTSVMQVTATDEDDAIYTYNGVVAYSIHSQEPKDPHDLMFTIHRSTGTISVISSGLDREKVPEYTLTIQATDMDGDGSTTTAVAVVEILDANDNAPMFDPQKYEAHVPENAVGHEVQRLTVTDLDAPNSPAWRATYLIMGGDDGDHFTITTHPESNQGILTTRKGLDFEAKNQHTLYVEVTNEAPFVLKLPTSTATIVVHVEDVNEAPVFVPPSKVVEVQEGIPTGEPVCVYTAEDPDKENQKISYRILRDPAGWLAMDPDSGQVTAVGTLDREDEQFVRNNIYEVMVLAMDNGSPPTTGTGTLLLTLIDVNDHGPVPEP
T4 sequence (P22223 108-654): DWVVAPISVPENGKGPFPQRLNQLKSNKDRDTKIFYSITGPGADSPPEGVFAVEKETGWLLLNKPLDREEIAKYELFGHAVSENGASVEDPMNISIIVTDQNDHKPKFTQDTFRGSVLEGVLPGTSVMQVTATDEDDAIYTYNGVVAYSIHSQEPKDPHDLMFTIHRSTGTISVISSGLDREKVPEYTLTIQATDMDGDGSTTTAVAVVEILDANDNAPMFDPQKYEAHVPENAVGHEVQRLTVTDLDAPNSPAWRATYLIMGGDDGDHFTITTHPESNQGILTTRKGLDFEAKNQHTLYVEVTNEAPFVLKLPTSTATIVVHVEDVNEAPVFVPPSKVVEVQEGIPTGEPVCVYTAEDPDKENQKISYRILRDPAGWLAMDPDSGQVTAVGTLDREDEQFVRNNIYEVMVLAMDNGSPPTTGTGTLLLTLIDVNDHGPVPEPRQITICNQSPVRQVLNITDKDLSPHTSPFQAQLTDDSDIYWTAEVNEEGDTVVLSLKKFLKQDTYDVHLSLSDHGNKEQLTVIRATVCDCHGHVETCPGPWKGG
T1 sequence (P22223 108-461): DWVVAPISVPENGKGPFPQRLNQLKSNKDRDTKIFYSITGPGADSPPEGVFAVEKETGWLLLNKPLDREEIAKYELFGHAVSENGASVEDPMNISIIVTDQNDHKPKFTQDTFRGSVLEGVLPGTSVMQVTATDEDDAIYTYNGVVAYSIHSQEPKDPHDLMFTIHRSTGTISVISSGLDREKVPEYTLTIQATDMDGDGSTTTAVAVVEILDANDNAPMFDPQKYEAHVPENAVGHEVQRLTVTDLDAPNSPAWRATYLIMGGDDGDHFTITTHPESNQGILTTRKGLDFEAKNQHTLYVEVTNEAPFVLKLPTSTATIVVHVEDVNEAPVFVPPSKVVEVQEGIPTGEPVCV
T5 sequence (P22223 108-236): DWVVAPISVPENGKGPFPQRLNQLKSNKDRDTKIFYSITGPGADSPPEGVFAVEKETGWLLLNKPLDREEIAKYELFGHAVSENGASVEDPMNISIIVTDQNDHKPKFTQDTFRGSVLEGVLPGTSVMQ
T2 sequence (P22223 108-348): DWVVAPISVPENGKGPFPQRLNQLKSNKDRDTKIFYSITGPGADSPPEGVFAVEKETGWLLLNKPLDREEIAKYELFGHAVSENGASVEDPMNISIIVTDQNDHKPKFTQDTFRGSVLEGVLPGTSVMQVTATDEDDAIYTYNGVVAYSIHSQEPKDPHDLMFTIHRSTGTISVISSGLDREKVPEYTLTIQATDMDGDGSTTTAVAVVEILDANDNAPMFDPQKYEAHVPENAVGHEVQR

B1: W3195-1.53.1-p1-uIgG1L (antibody)
heavy: not shown
light: SYELTQPPSVSVSPGQTAQITCSGDKLGDKFASWYQQKSGQSPVVVIYQDNKRPSGFPERFSGSNSGNTATLTISGTQAMDEADYYCQAWDSSIVVFGGGTKLTVLGQPKAAPSVTLFPPSSEELQANKATLVCLISDFYPGAVTVAWKADSSPVKAGVETTTPSKQSNNKYAASSYLSLTPEQWKSHRSYSCQVTHEGSTVEKTVAPTECS
notes: also called W3195-p1 antibody
Take B1: the EC50 in experiment [1] worked out at 0.08 nM; in experiment [3] it was 0.087 nM; in experiment [4], 0.14 nM; in experiment [5], 0.2 nM; in experiment [6] it was 0.1 nM; in experiment [7], 0.21 nM. The “Max OD450” value amounted to 2.83 in experiment [1]; 0.08 in experiment [2]; 2.88 in experiment [3]; 2.88 in experiment [4]; 0.07 with W319-hPro1.D1.ECD.hFc. Further, in experiment [6], the “Max MFI” value stood at 2290.
